For the assay, the target named is Rpt2-L437C (S. cerevisiae, UniProt P40327 1-437, L437C). The experiment in a line: cross-linking.
Chain of Rpt2-L437C (P40327 whole entry L437C): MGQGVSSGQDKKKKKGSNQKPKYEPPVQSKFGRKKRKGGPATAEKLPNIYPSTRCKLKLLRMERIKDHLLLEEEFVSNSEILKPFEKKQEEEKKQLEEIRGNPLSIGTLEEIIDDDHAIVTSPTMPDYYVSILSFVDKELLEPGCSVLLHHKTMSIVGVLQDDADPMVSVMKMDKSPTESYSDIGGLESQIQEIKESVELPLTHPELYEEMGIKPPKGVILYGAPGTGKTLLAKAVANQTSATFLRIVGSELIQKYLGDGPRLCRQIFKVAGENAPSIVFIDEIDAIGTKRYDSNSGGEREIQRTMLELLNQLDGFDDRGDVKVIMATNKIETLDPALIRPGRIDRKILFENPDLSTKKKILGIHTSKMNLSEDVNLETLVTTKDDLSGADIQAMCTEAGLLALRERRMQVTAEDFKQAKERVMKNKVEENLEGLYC

B1: α4-N79C, not HA-tagged (natural protein)
chain: MSGYDRALSIFSPDGHIFQVEYALEAVKRGTCAVGVKGKNCVVLGCERRSTLKLQDTRITPSKVSKIDSHVVLSFSGLCADSRILIEKARVEAQSHRLTLEDPVTVEYLTRYVAGVQQRYTQSGGVRPFGVSTLIAGFDPRDDEPKLYQTEPSGIYSSWSAQTIGRNSKTVREFLEKNYDRKEPPATVEECVKLTVRSLLEVVQTGAKNIEITVVKPDSDIVALSSEEINQYVTQIEQEKQEQQEQDKKKKSNH
For B1, the binding result was “binds”.

B2: α4-C32A C46A N79C (natural protein)
chain: MSGYDRALSIFSPDGHIFQVEYALEAVKRGTAAVGVKGKNCVVLGAERRSTLKLQDTRITPSKVSKIDSHVVLSFSGLCADSRILIEKARVEAQSHRLTLEDPVTVEYLTRYVAGVQQRYTQSGGVRPFGVSTLIAGFDPRDDEPKLYQTEPSGIYSSWSAQTIGRNSKTVREFLEKNYDRKEPPATVEECVKLTVRSLLEVVQTGAKNIEITVVKPDSDIVALSSEEINQYVTQIEQEKQEQQEQDKKKKSNH
Turning to B2, the binding result was “binds”.

The record behind these values is paper PMC3210322 (Nature structural & molecular biology, 2011).
